Measured values: PMC10675646 (Viruses, 2023)
Where no end group is shown, it is not given here. The star is where a group is joined. 5FAM = O=C1OC2(c3ccc(O)cc3Oc3cc(O)ccc32)c2ccc(C(=O)*)cc21; Ahx = NCCCCCC(=O)O

T1: 6xHis-SUMO-TRAF2 (residues 315-501) (human, UniProt Q12933 315-501)
T1 construct: also called SUMO-TRAF-C of TRAF2; TRAF2 TRAF-C domain
T1 sequence (looked up): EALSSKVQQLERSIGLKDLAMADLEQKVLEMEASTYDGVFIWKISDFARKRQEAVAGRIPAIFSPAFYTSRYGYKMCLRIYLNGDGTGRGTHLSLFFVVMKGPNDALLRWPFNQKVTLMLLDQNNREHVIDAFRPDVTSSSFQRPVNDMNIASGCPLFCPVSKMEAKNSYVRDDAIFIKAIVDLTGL

T2: 6xHis-SUMO-TRAF3 (residues 341-568) (human, UniProt Q13114 341-568)
T2 construct: also called SUMO-TRAF-C of TRAF3; TRAF3 TRAF-C domain
T2 sequence (looked up): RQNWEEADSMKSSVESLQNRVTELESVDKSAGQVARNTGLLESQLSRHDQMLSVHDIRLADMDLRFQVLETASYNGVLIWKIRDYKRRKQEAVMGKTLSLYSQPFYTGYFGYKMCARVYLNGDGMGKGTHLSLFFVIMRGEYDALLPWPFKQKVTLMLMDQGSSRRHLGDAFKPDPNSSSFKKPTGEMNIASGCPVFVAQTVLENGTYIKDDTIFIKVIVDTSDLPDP

B1: TRAF2 TRAF-C domain (human TRAF2 residues 315-501), tag cleaved, for crystallization (domain or fragment, UniProt Q12933 315-501, looked up)
chain: T1 sequence (looked up)
B2: 5-FAM-Ahx-PIQAS peptide (5-aa ORF3a peptide, residues 36-40) (peptide)
peptide: {5FAM-Ahx}-PIQAS
notes: also called 5-FAM-ORF3a peptide; fluorescently labeled PIQAS peptide

What was measured:
[1] = biological target: 16-aa ORF3a peptide (SARS-CoV-2 ORF3a residues 30-45) (SARS-CoV-2); test: crystal structure; settings: both partners purified
crystal structure = biological target: the molecule itself; test: crystal structure
[2] = biological target: T1, 6xHis-SUMO-TRAF2 (residues 315-501); test: fluorescence polarisation; settings: both partners purified
[3] = biological target: T2, 6xHis-SUMO-TRAF3 (residues 341-568); test: fluorescence polarisation; settings: both partners purified

| Binder | binding result [1] | stoichiometry N (crystal structure) | Kd [2] [µM] | Kd [3] [µM] |
| --- | --- | --- | --- | --- |
| B1 | binds | 3 | – | – |
| B2 | – | – | 192 | 172 |
